The experiment concerns Arabidopsis thaliana T1 plants. Nature of the experiment: Topramezone tolerance of transgenic Arabidopsis thaliana T1 plants (pesticide damage grade by bleached leaf area, score, resistance evaluation). Type of experiment: in vivo. As to conditions: HPPDs from different species, 7 DAT; for Classification and statistics of pesticide damage grade Grade 0 / Classification and statistics of pesticide damage grade Grade 1 / Classification and statistics of pesticide damage grade Grade 2 / Classification and statistics of pesticide damage grade Grade 3: number of plants (of 16) in this grade; for Scores: score for pesticide damage 0-100. A digest of the protocol:
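Eighteen days after sowing, wild-type and HPPD-transgenic T1 Arabidopsis receive a topramezone spray at 1×, 2× or 4× field rate (25–100 g ai/ha) or water. Seven days later each plant is graded by its proportion of bleached leaf area.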

The results in this text go back to patent US20230212587A1, “Mutant Hydroxyphenylpyruvate Dioxygenase Polypeptide, Encoding Gene Thereof and Use Therefor” (Beijing Dabeinong Biotechnology Co., Ltd., priority 2019, published 2023).

Where a chain is given by its changes, count along the chain named. Numbers in names are those of the source.

B1: N1HPPD-02: native Sphingobium sp. N1 HPPD, SEQ ID NO: 147 (protein)
chain: MAADSENPLGLHGFAFAEFTSPDPAAMARQFEQLGFVPAARRKDRGLTLYRQGRIAFILNAGEGEQASAFRAAHGPSANGMAFNVADAKAAHRHAIQSGATDADTAQSALPGTYAIEGIGDSLLYLVDSDPFADWDEVPGWREASAERGVGLDLLDHLTHNVRRGQMRVWSEFYATLFGFEEQKFFDIKGQATGLFSQAMIAPDHEIRIPLNESQDDNSQIEEFIREYNGEGIQHLALTTPDIYSTVEKLRANGVRLQDTIDTYYDLVDERVPGHGEDLARLRKNRILIDGDVHDEGLLLQIFTETMFGPIFFEIIQRKGNEGFGNGNFQVLYESIELDQIRRGVVTVDA
modifications: N1HPPD Amino Acid Sequence (Sphingobacterium)
For B1, under “topramezone 25 g ai/ha (1x)”, the “Classification and statistics of pesticide damage grade Grade 0” value was 2; the “Classification and statistics of pesticide damage grade Grade 1” value is reported as 12; the “Classification and statistics of pesticide damage grade Grade 2” value was found to be 1; the “Classification and statistics of pesticide damage grade Grade 3” value is given as 1. In addition, where the note is “topramezone 25 g ai/ha (1x)”, the Scores turned out to be 35 and the Resistance evaluation entry was “poorly resistant (poorly resistant plants (scores 34-67))”. For the setting “topramezone 100 g ai/ha (4x)”, the “Classification and statistics of pesticide damage grade Grade 0” value is recorded as 0; the “Classification and statistics of pesticide damage grade Grade 1” value came to 4; the “Classification and statistics of pesticide damage grade Grade 2” value came out at 8; the “Classification and statistics of pesticide damage grade Grade 3” value is given as 4. Further, under “topramezone 100 g ai/ha (4x)”, the Scores was 67 and the Resistance evaluation entry was “poorly resistant (poorly resistant plants (scores 34-67))”.

B2: S1HPPD-02: native Solanum lycopersicum HPPD, SEQ ID NO: 129 (protein)
chain: MGKQAAAAADDQQLPGDIEDKFKLVGFNHFVRTNPRSDFFTVKRFHHIEFWCGDATNTARRFSWGLGLPIAAISDLSTGNSVHASYLLRSSSSSQLQFLFTAPYSSAISTSSSASIPTFSVSSHRSFTATHGLGVRAIALEVENSRLAFSTCVAHGAKPVSEPVILNDEVVIAEVHLYGDVVLRFVSFLKDSNCFVFLPGFESVEGAQLDYGIRRLDHAVGNVPELGPVVEYIKSFTGFHEFAEFTAEDVGTAESGLNSVVLANNDETVLFPLNEPVYGTKRKSQIQTYLEHNEGAGVQHLALVTEDIFRTLREMRKRSGIGGFEFMPSPPPTYYKNLKTRAGDILSDEQIQECEELGILVDRDDQGTLLQIFTKPVGDRPTIFLEIIQRIGCMLKNEEGELYQKGGCGGFGKGNFSELFKSIEEYEKTLEAKQNTQVAIA
modifications: SlHPPD Amino Acid Sequence (Solanum lycopersicum)
On to B2, for which, for the setting “topramezone 25 g ai/ha (1x)”, the “Classification and statistics of pesticide damage grade Grade 0” value stood at 0; the “Classification and statistics of pesticide damage grade Grade 1” value is 0; the “Classification and statistics of pesticide damage grade Grade 2” value is listed as 0; the “Classification and statistics of pesticide damage grade Grade 3” value was found to be 16. Where the note is “topramezone 25 g ai/ha (1x)”, the Scores is 100 and the Resistance evaluation result is “non-resistant (non-resistant plants (scores 68-100))”. Under “topramezone 100 g ai/ha (4x)”, the “Classification and statistics of pesticide damage grade Grade 0” value is given as 0; the “Classification and statistics of pesticide damage grade Grade 1” value came to 0; the “Classification and statistics of pesticide damage grade Grade 2” value was determined as 0; the “Classification and statistics of pesticide damage grade Grade 3” value was determined as 16. In addition, for the setting “topramezone 100 g ai/ha (4x)”, the Scores was 100 and the Resistance evaluation result was “non-resistant (non-resistant plants (scores 68-100))”.

B3: S1HPPDm-F372A-02: Solanum lycopersicum HPPD mutant F372A, SEQ ID NO: 132 (protein)
chain: B2 chain with F373A
modifications: SlHPPDm-F372A Amino Acid Sequence
On to B3, for which, for the setting “topramezone 25 g ai/ha (1x)”, the “Classification and statistics of pesticide damage grade Grade 0” value is listed as 1; the “Classification and statistics of pesticide damage grade Grade 1” value is recorded as 1; the “Classification and statistics of pesticide damage grade Grade 2” value came to 14; the “Classification and statistics of pesticide damage grade Grade 3” value came to 0. Also, under “topramezone 25 g ai/ha (1x)”, the Scores is recorded as 60 and the Resistance evaluation result is recorded as “poorly resistant (poorly resistant plants (scores 34-67))”. Also, under “topramezone 100 g ai/ha (4x)”, the “Classification and statistics of pesticide damage grade Grade 0” value is 0; the “Classification and statistics of pesticide damage grade Grade 1” value was determined as 1; the “Classification and statistics of pesticide damage grade Grade 2” value came out at 4; the “Classification and statistics of pesticide damage grade Grade 3” value is 11. Where the note is “topramezone 100 g ai/ha (4x)”, the Scores worked out at 88 and the Resistance evaluation result is reported as “non-resistant (non-resistant plants (scores 68-100))”.

B4: AhHPPD-02: native Arachis hypogaea HPPD, SEQ ID NO: 135 (protein, listed as Arachis hypogaea)
chain: MATAYTYAHAVTYCNSQHNPPIIPILSTNQHPPRVTLPSSIPHFISTITTFNLKHFPSHSLHTVMVTQTQQNAPSSSPELGFKLVGFKNFVRTNPKSDRFKVIRFHHVEFWCTDATNTASRFSWGLGMPIVAKSDLSTGNAVHASYLLRSGDLNFLFSAPYSASIAGDGASASFPSFSASDCHSFAAKHGLAVRAVAIEVEDASAAFSASVANGAKPVSPAVLLDNSVGFAEVHLYGDVVLRYISYSAPTRESNLNPTLRFLPGFEAVEADSSFPELDYGIRRLDHAVGNVPELAPAVNYLKKFTGFHEFAEFTAEDVGTSESGLNSVVLASNDEMVLLPLNEPVYGTKRKSQIETYLEHNEGAGLQHLALVSEDIFRTLREMRKRSTIGGFQFMPSPPPTYYRNLKKRAGDVLSDEQIKECEELGILVDRDDQGTLLQIFTKPVGDRPTIFIEIIQRIGCMLKDEEGKVYQKGGCGGFGKGNFSELFKSIEEYEKTLESRRTA
modifications: AhHPPD Amino Acid Sequence
As to B4, under “topramezone 25 g ai/ha (1x)”, the “Classification and statistics of pesticide damage grade Grade 0” value worked out at 0; the “Classification and statistics of pesticide damage grade Grade 1” value turned out to be 0; the “Classification and statistics of pesticide damage grade Grade 2” value is recorded as 0; the “Classification and statistics of pesticide damage grade Grade 3” value is recorded as 16. For the same molecule, under “topramezone 25 g ai/ha (1x)”, the Scores came out at 100 and the Resistance evaluation entry was “non-resistant (non-resistant plants (scores 68-100))”. For the same molecule, under “topramezone 100 g ai/ha (4x)”, the “Classification and statistics of pesticide damage grade Grade 0” value stood at 0; the “Classification and statistics of pesticide damage grade Grade 1” value is listed as 0; the “Classification and statistics of pesticide damage grade Grade 2” value is listed as 0; the “Classification and statistics of pesticide damage grade Grade 3” value worked out at 16. For the setting “topramezone 100 g ai/ha (4x)”, the Scores stood at 100 and the Resistance evaluation result is reported as “non-resistant (non-resistant plants (scores 68-100))”.

B5: AhHPPDm-F372A-02: Arachis hypogaea HPPD mutant F372A, SEQ ID NO: 138 (protein)
chain: B4 chain with F441A
modifications: AhHPPDm-F372A Amino Acid Sequence
For B5, under “topramezone 25 g ai/ha (1x)”, the “Classification and statistics of pesticide damage grade Grade 0” value is 2; the “Classification and statistics of pesticide damage grade Grade 1” value was found to be 12; the “Classification and statistics of pesticide damage grade Grade 2” value stood at 2; the “Classification and statistics of pesticide damage grade Grade 3” value turned out to be 0. For the setting “topramezone 25 g ai/ha (1x)”, the Scores came to 33 and the Resistance evaluation result is listed as “moderately resistant (moderately resistant plants (scores 16-33))”. Further, for the setting “topramezone 100 g ai/ha (4x)”, the “Classification and statistics of pesticide damage grade Grade 0” value is 0; the “Classification and statistics of pesticide damage grade Grade 1” value is given as 0; the “Classification and statistics of pesticide damage grade Grade 2” value is listed as 10; the “Classification and statistics of pesticide damage grade Grade 3” value was 6. Moreover, for the setting “topramezone 100 g ai/ha (4x)”, the Scores was 79 and the Resistance evaluation result is given as “non-resistant (non-resistant plants (scores 68-100))”.

B6: CyHPPD-02: native Cyanobacteria HPPD, SEQ ID NO: 141 (protein)
chain: MEFDYLHLYVDDYQSAHRCYQRQWGFTCVNKIITDQGITGIYQQGQILLLISASESSLSRYADYLQKHPPGVGEVAWQVANWQKIQHQLSELQIETTPVIHPLTKAEGLTFLLWGDVHHSIYPVRSELNQNKTLHGVGLTTIDHVVLNIAADQFTQASQWYQQVFGWSVQQSFTVNTPHSGLYSEALASANGKVQFNLNCPTNNSSQIQTFLANNHGAGIQHVAFSTTSITRTVAHLRERGVNFLKIPTGYYQQQRNSSYFNYASLDWDTLQCLEILLDDQDNTGERLLLQIFSQPCYGVGTLFWEIIERRHRAKGFGQGNFQALYEAVETLEKQLEVP
modifications: CyHPPD Amino Acid Sequence (Cyanobacteria)
For the molecule B6, where the note is “topramezone 25 g ai/ha (1x)”, the “Classification and statistics of pesticide damage grade Grade 0” value worked out at 0; the “Classification and statistics of pesticide damage grade Grade 1” value came out at 0; the “Classification and statistics of pesticide damage grade Grade 2” value is 0; the “Classification and statistics of pesticide damage grade Grade 3” value is recorded as 0. Moreover, under “topramezone 25 g ai/ha (1x)”, the Scores is listed as 16 and the Resistance evaluation result is “non-resistant (non-resistant plants (scores 68-100))”. Besides, for the setting “topramezone 100 g ai/ha (4x)”, the “Classification and statistics of pesticide damage grade Grade 0” value came to 0; the “Classification and statistics of pesticide damage grade Grade 1” value is listed as 0; the “Classification and statistics of pesticide damage grade Grade 2” value came out at 0; the “Classification and statistics of pesticide damage grade Grade 3” value amounted to 0. Further, for the setting “topramezone 100 g ai/ha (4x)”, the Scores turned out to be 16 and the Resistance evaluation result is given as “non-resistant (non-resistant plants (scores 68-100))”.

B7: CyHPPDm-F372A-02: Cyanobacteria HPPD mutant F372A, SEQ ID NO: 144 (protein)
chain: B6 chain with F293A
modifications: CyHPPDm-F372A Amino Acid Sequence
Turning to B7, for the setting “topramezone 25 g ai/ha (1x)”, the “Classification and statistics of pesticide damage grade Grade 0” value is 1; the “Classification and statistics of pesticide damage grade Grade 1” value came to 14; the “Classification and statistics of pesticide damage grade Grade 2” value is 1; the “Classification and statistics of pesticide damage grade Grade 3” value is listed as 0. In addition, under “topramezone 25 g ai/ha (1x)”, the Scores amounted to 33 and the Resistance evaluation result is listed as “moderately resistant (moderately resistant plants (scores 16-33))”. Further, under “topramezone 100 g ai/ha (4x)”, the “Classification and statistics of pesticide damage grade Grade 0” value was 0; the “Classification and statistics of pesticide damage grade Grade 1” value was determined as 1; the “Classification and statistics of pesticide damage grade Grade 2” value was found to be 15; the “Classification and statistics of pesticide damage grade Grade 3” value amounted to 0. For the setting “topramezone 100 g ai/ha (4x)”, the Scores amounted to 65 and the Resistance evaluation entry is on record as “poorly resistant (poorly resistant plants (scores 34-67))”.
